These results are taken from PMC3615468 (Nature Communications, 2013).

The data set deals with the molecule itself. The data set is described as follows: SEC.

B1: Recombinant CIDE-N domain of mouse Fsp27 (a.a. 39-119) (domain or fragment, UniProt P56198 39-119, looked up)
chain: TPRARPCRVSTADRKVRKGIMAHSLEDLLNKVQDILKLKDKPFSLVLEEDGTIVETEEYFQALAKDTMFMVLLKGQKWKPP
For the protein B1, the “stoichiometry N” value was 2.
